Results taken from paper doi:10.1101/2023.03.17.532973 (bioRxiv, 2023).

T1: SHMT1 (cytosolic serine hydroxymethyltransferase) WT (Homo sapiens, UniProt P34896 1-483)
T1 sequence: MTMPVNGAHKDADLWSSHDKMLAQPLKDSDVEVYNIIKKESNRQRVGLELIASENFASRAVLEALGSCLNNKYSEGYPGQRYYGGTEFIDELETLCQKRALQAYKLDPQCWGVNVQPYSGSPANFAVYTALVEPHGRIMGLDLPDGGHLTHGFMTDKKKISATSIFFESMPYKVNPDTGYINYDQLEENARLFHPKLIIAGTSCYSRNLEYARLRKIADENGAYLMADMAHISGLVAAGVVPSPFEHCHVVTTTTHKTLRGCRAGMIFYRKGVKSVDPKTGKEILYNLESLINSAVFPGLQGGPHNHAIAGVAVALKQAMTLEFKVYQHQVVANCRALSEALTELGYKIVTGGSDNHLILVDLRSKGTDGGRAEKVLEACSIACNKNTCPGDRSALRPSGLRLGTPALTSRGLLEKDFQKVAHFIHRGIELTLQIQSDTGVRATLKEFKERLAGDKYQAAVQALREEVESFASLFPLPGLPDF


Experiments:
[1] = target: T1, SHMT1 (cytosolic serine …); experiment: EMSA
[2] = target: the molecule itself; experiment: cryo-EM structure

Binder	binding result [1]	stoichiometry N [2]
UGUGGCCUUUUGGGAAUUGUAGUUCGCCCACUCACCGCUUUUUUCUUUAU (structured_RNA) [UTR2 1-50 Rv (reverse complement)]	binds	–
human cytosolic serine hydroxymethyltransferase (SHMT1), wild type (enzyme) DADLWSSHDKMLAQPLKDSDVEVYNIIKKESNRQRVGLELIASENFASRAVLEALGSCLNNKYSEGYPGQRYYGGTEFIDELETLCQKRALQAYKLDPQCWGVNVQPYSGSPANFAVYTALVEPHGRIMGLDLPDGGHLTHGFMTDKKKISATSIFFESMPYKVNPDTGYINYDQLEENARLFHPKLIIAGTSCYSRNLEYARLRKIADENGAYLMADMAHISGLVAAGVVPSPFEHCHVVTTTTHKTLRGCRAGMIFYRKGVKSVDPKTGKEILYNLESLINSAVFPGLQGGPHNHAIAGVAVALKQAMTLEFKVYQHQVVANCRALSEALTELGYKIVTGGSDNHLILVDLRSKGTDGGRAEKVLEACSIACNKNTCPGDRSALRPSGLRLGTPALTSRGLLEKDFQKVAHFIHRGIELTLQIQSDTGVRATLKEFKERLAGDKYQAAVQALREEVESFASLFPLPGL	–	4
